Laboratory results reported in the DeepSol protein solubility set.

Test: soluble on expression in E. coli; label from the status in PepcDB or PDB records

Sequence | soluble on expression in E. coli
MAHHHHHHMQRQVIRRLGNRSAFPLVAAVARSSQIRGAVRGDSGSRARVIPSFMCSLRAYSGGHHEEPSSRSGQYLLDKSDVLTRVLEVVKNFEKVDASKVTPESHFVKDLGLNSLDVVEVVFAIEQEFILDIPDHDAEKIQSIPDAVEYIAQNPMAK | soluble
MAHHHHHHMRADSVSQTRKQQPNSSALGDDGDDEGANGEVEGRPMRQCMHITDKEIVIKLQNWFCDSNEIAGEWEAAGKTESRRSGASSNLEISQTIPFHSSHKSSLGKSASSSTLRPSNTCIPADLSAPLDGAPSLEVSTTSETRKIHSARGPRADERASRPYRTPSTDAVRYCAVYLRHFATIHQQHPYENSRQEQLLPTLAPEPLTAPLVALLTPWERNFIYRDILGQTEEQVSRAMEIVEHSPNMSYTYPTPFLKVSGISRVLLVEPPAAERVALLLRVMRAAEVLQVPSLRSLCAAWCADFIVRASYGARDHFEAAALVRRCFQVQNDWSRKEMDCLKLENEWPVNEEEY | not soluble
MAHHHHHHMRGTTKPMLFLCSTAVRLNFFPLGLSAGPLNSHILLPRNNFDGRTTHGMKKIQGQSKDPQMVMSRDELKLRCEYCRFEWIHDTLCVRCPAQPSHDQREMWLHSTWMWGKQQPYKYYKYMPAVRNPRTGMPMAREDARGMNNERRGQGLTTRTLNLEKERRGISRDVSRIGQYNTRWKTRFPFPT | not soluble
MAHHHHHHMRNVVQKYLCRKNNFPGFCSKRNVCTLSQKKNLSAYKIYTDGLLHSEFSTELKTTNEVNRLPIFRVLDTEGNLLDGHNAPFEEEEIVKLYKQMVEFSIWDEIFYGIQRQGRISFYIVNDGEEGIQFGLGKVLTPDDHLYCQYRETGILLSRGFDYADIINQLFGNKYDEGKGRQMCICYTSKKLNIHTITTPLASQLSHAAGCGYALKLKNEKAVAATFCGDGSSSEGDFYAALNFAAVRESQTMFICKNNLYAISTSIKDQYRGDGVAPRALALGIESVRVDGNDLFATYLAAKKMREICTEESKPVFMEFMAYRYGHHSTSDDSSLYRPKEENDAWKKEGVHPISRLFLYLKNKKLYTDKDDELHRKAIKEKVLKELKKHESIKRYNIVGGLFENVYHEEDWNLKEQRESFEQFFKQHKGCYDTSKFEG | not soluble
MAHHHHHHMRRQTRLFSRLAVEIPNSHWLPRRLLLVRHGESEANVDRSQYSRIPDWKIPLTERGRAQALDCGRRLRNIIKNEKLYIYYSPYVRTQQTLAEVRKSLEESQVQGEREDERLREQEIGNFQPLDKMDRTWDERSNFGRSYYRFPDGESSVDVGDRVSTFFDSLFRERLELYSLSAGDPEDEDGPLNVPGEDDQNVLIISHGLLIRLFIARWFRVPLEAFETMRNPPNCSIVVLERQESARMVMTDISKKLFGSDPLLEMMKFDGKDSTKRYRHMFFSDHSGSFTPAEGV | not soluble
MAHHHHHHMRSNGAAHIGNNTFLAVTRDVTDTAFLFSSSFSPAEQLVRLPLSRKTRFLPHASLACGEAERSEYAESAARAGPPTKDVDVKEAVASAAAASTPLFCHSAHASPDGHKIAFISNVRRHHYIIDISVLPAAVCELEMPEVVQSVCWHTVAHHALCVLFISGDLTIYDTDQSYLGVIVPLYRRIALRPVIERRLADAEAAVHPSPSIPSTAPGTISPAKGATALDKEEVQSTRVKALAGKVSTTRLPPARQAHATTAEVAGFRSLVLHSGGGAIVAGSDIAHSPSYAVAERIDHDEMVPVSSADEVGAEGAASCPPIPKPVMLPTSQLDLVDMYALPPTESIPVILLLSSSGDVYAVHLGDDCLPVVATAAATDDGRVRTREEEVLRRAEVAAAPLSVEVYHLISGDSTGAAGDEAVAVGGCLVDEDAGTHAVFFLTANGLVKGAWVSKPDLLARHRVAHVRAVGSPNISFTLHLSGSLGARASLAPAVPSITHSVSMTLSQNVCVVRSGVAGETAFVMAFPRWDRRRQGWACWRPACADAREREREAAALPLLSTDAAPPSPVALRLPYDTRDSSIAVGCTELLLVPEVSTMDGLCERGSILVISLAAVLRSALYARCGKLGLHPSAGAGATSRLRDPHPAVLDLLNAVPECHRCWLRGVPEAEMSAATLNLVRRIEQLSGDVNRREMVQAQRRRRLVARVANLEGRVAEMDGMLAEWRQIILDGIVHRRGGDAFRTANARLRKVSTMLNELEQQL | not soluble
MAHHHHHHMRSTPHGPPPHPRTSSVRQDAITYPYAYAAPGRQAPSAGYEHDDNTTAEAGPTRRCVPGRGNRAMPASNTGPYPSDVNRTLSYPEPAPARTAAPAVAIMQPSSPFEQDHTPVVYTVQNTTTDTHRHETEYGGVLTIRTTTVTRTITERLVASDEDDDSSENGEVYLDDARNEASVPSLHR | not soluble
MAHHHHHHMRVRSLLLCIRRDPLQRAVDVAYASGMLLGSGSSRGTTHFSETTAFTSSNFAADLRGGRVGLAGDGGTKCDDRNGELVRGRIQFASRCAEGPFVGASPTVTSCAHIEGVVRQVECGYVGGDRVLQFIIEVEEVPASGGTPMRLPLAVRWRPGSEVAQNRMDEWQKEMERLVGRRVLASGRLQVEECFDSGSRRLYKTPSLVLPATSTVEMISLQELEC | not soluble
MAHHHHHHMSDCHWAVIRKAVEAEWDASIIPALAAYIEVPNQSPDFDPQWATNGLLTKAFTILINWMKGQNLLGLSYELMEVEGRTPFLLVEIAGTEPTKNTLLMYGHMDKQPPLHPWGEGLDPHKAVVRDGKLYGRGGADDGYALFSAITSVSVLQRHGIPHGRVIVVIEACEESGSFDLDYYMERCKERIGNVDLMICLDSACLNYSQVWLTTSLRGVTGGVLNVQTLTESMHSGVAGGVVPDTFRIARELLDRVEDSKTGKVLFPEAYCEIPDYVVKSMESMKAVPFKEQFAMADGVSAEPGDNVELALRNFWKPSLTVTGSNLPEPQIAGNVIRTHTSLKLSLRVPPLVDAEKATQAMAKVLVANPPYGAKVWFEPEVPGDGCATPELKPWLVTALNEGSKMAYGNPLAFQGMGASIPFISMLLKAYPQAQFVVTGVLGPKSNAHGPNEFLHIEYAKGLTFAISRVVAEHFSHTPK | soluble
MAHHHHHHMSEERVKILVLGPSRSGKSTIANFLAGLRETPTKGYYETQPLRILEVEIGLDNLKVGGRHVVGPKKAIVQLWDLGGSSKHQAGWQAVAANADGIIYVFNPEVRGAEKELVLWHKNFALDQDKLDERNNFKVRVPDKHSLVFSHHSSMPELAVGDNAIPSLPKQLRGVRAIETSLDYQSGNFKEAFDAMVEQIVVSRIVAEEDEILQKEREAGDAPRMVR | not soluble
MAHHHHHHMSGQAGKQVAPVKCKGWAVEKPALKWSTDAVRLSDVTVPAPDPTQIRVRVYAASINPVDWKRVMFPASGSGPGVAGSALKGFKGMHHKPPNYPYPYVVGVDGAGEVESVGRKVTGLKAGDRVMFHSSLTNAHGGSLCEYAVMEESVAVPIPADGARPFSYEEAAAIPCATWTAYVALFDKLRIEPGRSIFVDGASGAVGSCAVQLAHHMGLYVFASCSPSNADYVRSIGADQVLNYHDGIEMVDQILDATEGYGVDYYLAVTNTQDAESFTDALRFGGAVCLLSGVLIPNSNVLFRRQLSVHYVFLNGLHGHPLTRPQLRYIGDQVAKLYQSGAFRLDVEVLPFAEAAKALDRSATGNVNHKKLIVQVASP | soluble
MAHHHHHHMSIAKKRLAQERAEWRKDHPAGFSAKYSPMSDGKGLDIMKWICKIPGKKGGLWEGGEYPLTMEFTEDYPSKPPKCKFTTVLFHPNIYPSGTVCLSILNEDEDWKPSITIKQILLGIQDLLDNPNPNSPAQAEPFLLYQQDRDSYEKKVKKQAIEFRPKD | not soluble
MAHHHHHHMSIYIQLTHDLSGTVTAVTIGDWILGILKEKNIQEYEVFFKKFLHIYQKQDKDSECNNRSEIFSLLLSASDFVFETLVETKKNNKIKVIIDNKESVKSYNEFYKEVEEYFVILISILQLEFKSVEELNNATNNFIKAIKNYNEFPELRLKILQLLYNSFNVNFSFRFPTFIAILQFCSQNNIFHNMLPYIKYIDDWIKEWNISTREKRHIYLIISQELKKLKKYEESYEHLKKHIYYYDNEHKDILNHPNSINASIELIVDAININNNIYFHEIINLHAIQNLQFIPQHQPLFDLLLIFYKYTINEFLVFKNKHGSDFFNKYNIDIQTCESKIYLLSIISLFNDHKVQNIQFISKQLNISVVQIENILVAAIGSGVIDAKIDQINQTVHMKTTILRNFDDENWKQLNNQITKYINNVQKILELTKHANK | not soluble
MAHHHHHHMSLVASQEGLTDLVPCNDQCGGDYTLYTFGQSEKEVTITAPLAPGTRGKSLRVDIKVRHLQIEVPGKGTILAGELYKPINVDDSTWCIQDGKELVVVLTKTNIEYEEWWPHVVIGERQIDLKTLKPPSIRFSDLDGGAQATVAKMMHEQHEKRTDPAFTNA | soluble
MAHHHHHHMSQEEILQQTTGPSVPGKGVIVDDGTMEDIIDKLRILRYEKDFCPRVKPPFKPLSKYYFSGPSSIDNPNAQFHYFTSLCSWLMGLAGHNFEPPGQFDDPNATSTNILGELRAMNISAPNLAPNRIRQGNGEAVLTILSVLSDHALLKKGFTVRSVDYTNVEKYDELDGVTDADDDNGIGEEVEDNVMIESDDEEELYVRATGERLVKEDAGVPLESEINAEEWNLEVERVGPLLQVRSDALQDWRSRIESAGVLLRAVEKMYPEVKADASTCGG | not soluble
MAHHHHHHMSQLAHNVNLSIFEPISHHRANRIVCTIGPSTQSVEALKGLIRSGMSVARMNFSHGSHEYHQTTINNLRAAATELGAHIGLALDTKGPEIRTGLFKDGGIALAPGDTVLVTSDPAFEKIGTKEKFYIEYPRLSITVRPGGFIYIDDGVLSLKVLSKEDEYTLKCYVNNAHFLTDRKGCNLPGCEVDLPAVSEKDREDLKFGVEQGIDMVFASFIRTAEQVQEVREALGEKGKDILIISKIENHQGVQNIDGIIEASDGIMVARGDLGVEIPAEKVVVAQMILISKCNVAGKPVICATQMLESMTTNPRPTRAEVSDVANAVFNGADCVMLSGETAKGKYPNEVVQYMARICLEAQSATNQAVMFNSIKKMQKLPMSPEEAVCSSAVNSVYEVRAKALLVLSNSGRSARLASKYRPDCPIICATTRMRTCRQLTITRSVDAVFYDAERYGEDENKEKRVQLGVDCAKKKGYVVPGDLMVVVHADHKVKGYPNQTRIIYVS | not soluble
MAHHHHHHMSRFPEARKQSVQVTRHCGIASQLVTEVNGRNLTHLSVLEQEMLASSNVTEHSRQMMDVVQDPKTDIDDALRMVMLYALRYEKVGGNNTAQLKEMLLKRNCPMERISLIDRLLEYGGADKRLHELFRTSTGHILKIVAKTVGQFGKDIQNVLTQHVPLMKKVINRVYNGTLSEQKYPVQEVVGSPISVSAVPTIRAKDIIIVMVGGVTYSEAMLLYQINQGQVSNNVESLMNLGKNVTRLVSGDSTAKSASGEPYTEKIEARVTLLSTSMIDSKDFIHSLPS | not soluble
MAHHHHHHMSRMPSTAARSQPYAFGPEGVMLDGGASEGRQNSVEALLAYCAARVAENPSWRTASWQQAGASNASAFRVPVSPRYLANASYAATGSPLCLRAGRIYLTDARIRAGIAEFQAAGLTVLPLTDDVLSRPSSRASKATVRVVPAMAVLLNGAWIATHFFHLVTDALEALRSAYQTWQDGVLLRIPTQTVLLHQPESNWMDRRGDTHGKMELSAALANAFSSPELARGSPYNSSFLFRSQSRHCAELEANATATMASPPPPRRQSPATVSTLCFCDGLLVTTHRLPVLERDILYGIQDWAARQFRASPYGVNRSVQEMERLRLQHALLSSTSTLWSIGTLTAPALSLSYKPRALFVHRTSRVIANASRYAGWMRAAGFRVEEVYLEKHTAAQQYHLGRYADIVVGMHGLGIGHAMWMERSPPRCRTVIEFRPWVIASMPTQPILILEGAMHYHFVTIPPIDVRFGPSVAHPAEERELLLSSARMVNAFRYPSFTDQIAIYDDERVKGVIADVRQHLERCLPP | not soluble
